Measurements taken from the supplement of paper PMC7125110.
± gives the standard error. For some of these results: This sample holds only a part of the variants without activity.

B1: glmS ribozyme (parent)
chain: AUAAAAGCGCCAGAACUACAGAAAUGUAGUUGACGAGGAGGAGGUUUAUCGAAUUUUCGGCGGAUGCCUCCAAA

What was measured:
Settings in all cases: with glucosamine-6-phosphate
glucosamine-6-phosphate [1] = variants of: B1; experiment: kcat; higher = faster cleavage; RNA array
Outline: (§1)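 Weighted Michaelis–Menten fits across concentrations supplied kcat and KM, based on kobs from one- or two-exponential decay fits to normalised per-tile medians. The data came from barcoded ribozyme variants transcribed in situ by E. coli RNA polymerase on sequenced MiSeq chips and tracked at 37 °C by a hybridised Cy3 probe. Glucosamine-6-phosphate (40 μM to 10 mM) in HEPES/KCl/Mg(OAc)2 buffer was flowed in.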

glucosamine-6-phosphate [2] = variants of: B1; experiment: self-cleavage kobs at 640 uM GlcN6P; higher = faster cleavage; RNA array
Outline: as §1

glucosamine-6-phosphate [3] = variants of: B1; experiment: self-cleavage kobs at 2500 uM GlcN6P; higher = faster cleavage; RNA array
Outline: as §1

glucosamine-6-phosphate [4] = variants of: B1; experiment: self-cleavage kobs at 10000 uM GlcN6P; higher = faster cleavage; RNA array
Outline: as §1

glucosamine-6-phosphate [5] = variants of: B1; experiment: self-cleavage kobs at 40 uM GlcN6P; higher = faster cleavage; RNA array
Outline: as §1

glucosamine-6-phosphate [6] = variants of: B1; experiment: self-cleavage kobs at 160 uM GlcN6P; higher = faster cleavage; RNA array
Outline: as §1

glucosamine-6-phosphate [7] = variants of: B1; experiment: KM; higher = weaker cofactor use; RNA array
Outline: as §1

**Q.** With A52G C68G as the variant, how does the kcat (glucosamine-6-phosphate [1]) read?
**A.** 5.61e-05 ± 9.7e-06 s⁻¹

**Q.** What about the “self-cleavage kobs at 640 uM GlcN6P” value (glucosamine-6-phosphate [2]) of the same variant?
**A.** 6.55e-05 ± 1.4e-05 s⁻¹

**Q.** And the “self-cleavage kobs at 2500 uM GlcN6P” value (glucosamine-6-phosphate [3])?
**A.** 7.16e-05 ± 1.2e-05 s⁻¹

**Q.** What about the “self-cleavage kobs at 10000 uM GlcN6P” value (glucosamine-6-phosphate [4]) of the same variant?
**A.** 4.28e-05 ± 8.7e-06 s⁻¹

**Q.** How did the kcat (glucosamine-6-phosphate [1]) turn out when A52G C68U was run?
**A.** 0.000874 ± 0.00036 s⁻¹

**Q.** What about the “self-cleavage kobs at 40 uM GlcN6P” value (glucosamine-6-phosphate [5]) of the same variant?
**A.** 2.35e-05 ± 7.7e-06 s⁻¹

**Q.** And the “self-cleavage kobs at 160 uM GlcN6P” value (glucosamine-6-phosphate [6])?
**A.** 9.18e-05 ± 1.1e-05 s⁻¹

**Q.** And the “self-cleavage kobs at 640 uM GlcN6P” value (glucosamine-6-phosphate [2])?
**A.** 0.00015 ± 1.7e-05 s⁻¹

**Q.** What about the “self-cleavage kobs at 2500 uM GlcN6P” value (glucosamine-6-phosphate [3]) of the same variant?
**A.** 0.000377 ± 4e-05 s⁻¹

**Q.** What about the “self-cleavage kobs at 10000 uM GlcN6P” value (glucosamine-6-phosphate [4]) of the same variant?
**A.** 0.000858 ± 9.2e-05 s⁻¹

**Q.** Which kcat (glucosamine-6-phosphate [1]) does the source give for U55C U65G here?
**A.** 0.00367 ± 0.00064 s⁻¹

**Q.** And the KM (glucosamine-6-phosphate [7])?
**A.** 2540 ± 680 µM

**Q.** What about the “self-cleavage kobs at 40 uM GlcN6P” value (glucosamine-6-phosphate [5]) of the same variant?
**A.** 4.04e-05 ± 1.8e-05 s⁻¹

**Q.** What about the “self-cleavage kobs at 160 uM GlcN6P” value (glucosamine-6-phosphate [6]) of the same variant?
**A.** 0.000212 ± 5.2e-05 s⁻¹

**Q.** What about the “self-cleavage kobs at 640 uM GlcN6P” value (glucosamine-6-phosphate [2]) of the same variant?
**A.** 0.000908 ± 0.00016 s⁻¹

**Q.** What about the “self-cleavage kobs at 2500 uM GlcN6P” value (glucosamine-6-phosphate [3]) of the same variant?
**A.** 0.00177 ± 0.0003 s⁻¹

**Q.** And the “self-cleavage kobs at 10000 uM GlcN6P” value (glucosamine-6-phosphate [4])?
**A.** 0.00288 ± 0.00054 s⁻¹

**Q.** For A53C U57A U69A, which kcat (glucosamine-6-phosphate [1]) is on record?
**A.** 1.88e-05 ± 5.8e-06 s⁻¹

**Q.** G51U U56C was tested. Which kcat (glucosamine-6-phosphate [1]) did it give?
**A.** < 1e-05 s⁻¹

**Q.** What about the “self-cleavage kobs at 40 uM GlcN6P” value (glucosamine-6-phosphate [5]) of the same variant?
**A.** < 1e-05 s⁻¹

**Q.** What about the “self-cleavage kobs at 160 uM GlcN6P” value (glucosamine-6-phosphate [6]) of the same variant?
**A.** < 1e-05 s⁻¹

**Q.** What about the “self-cleavage kobs at 640 uM GlcN6P” value (glucosamine-6-phosphate [2]) of the same variant?
**A.** < 1e-05 s⁻¹

**Q.** Which kcat (glucosamine-6-phosphate [1]) does the source give for G51A U69G here?
**A.** 5.93e-05 ± 1.1e-05 s⁻¹

**Q.** And the “self-cleavage kobs at 160 uM GlcN6P” value (glucosamine-6-phosphate [6])?
**A.** 4.53e-05 ± 1.5e-05 s⁻¹

**Q.** And the “self-cleavage kobs at 640 uM GlcN6P” value (glucosamine-6-phosphate [2])?
**A.** 6.08e-05 ± 1.6e-05 s⁻¹

**Q.** What about the “self-cleavage kobs at 2500 uM GlcN6P” value (glucosamine-6-phosphate [3]) of the same variant?
**A.** 5.96e-05 ± 1.5e-05 s⁻¹

**Q.** With U56A C58G as the variant, how does the kcat (glucosamine-6-phosphate [1]) read?
**A.** 0.000188 ± 1.8e-05 s⁻¹

**Q.** And the KM (glucosamine-6-phosphate [7])?
**A.** 1930 ± 470 µM

**Q.** And the “self-cleavage kobs at 640 uM GlcN6P” value (glucosamine-6-phosphate [2])?
**A.** 4.15e-05 ± 9.1e-06 s⁻¹

**Q.** What about the “self-cleavage kobs at 2500 uM GlcN6P” value (glucosamine-6-phosphate [3]) of the same variant?
**A.** 0.000121 ± 1.6e-05 s⁻¹

**Q.** And the “self-cleavage kobs at 10000 uM GlcN6P” value (glucosamine-6-phosphate [4])?
**A.** 0.000151 ± 1.7e-05 s⁻¹

**Q.** Which kcat (glucosamine-6-phosphate [1]) does the source give for U56A C58A here?
**A.** 0.00106 ± 0.00052 s⁻¹

**Q.** What about the “self-cleavage kobs at 160 uM GlcN6P” value (glucosamine-6-phosphate [6]) of the same variant?
**A.** 3.2e-05 ± 1.1e-05 s⁻¹

**Q.** And the “self-cleavage kobs at 640 uM GlcN6P” value (glucosamine-6-phosphate [2])?
**A.** 0.000101 ± 1.3e-05 s⁻¹

**Q.** What about the “self-cleavage kobs at 2500 uM GlcN6P” value (glucosamine-6-phosphate [3]) of the same variant?
**A.** 0.000187 ± 2.3e-05 s⁻¹

**Q.** And the “self-cleavage kobs at 10000 uM GlcN6P” value (glucosamine-6-phosphate [4])?
**A.** 0.000605 ± 5.6e-05 s⁻¹

**Q.** How did the kcat (glucosamine-6-phosphate [1]) turn out when U55A C70G was run?
**A.** 0.000118 ± 1.5e-05 s⁻¹

**Q.** And the “self-cleavage kobs at 40 uM GlcN6P” value (glucosamine-6-phosphate [5])?
**A.** 3.74e-05 ± 7.5e-06 s⁻¹

**Q.** What about the “self-cleavage kobs at 160 uM GlcN6P” value (glucosamine-6-phosphate [6]) of the same variant?
**A.** 0.000102 ± 1.2e-05 s⁻¹

**Q.** What about the “self-cleavage kobs at 640 uM GlcN6P” value (glucosamine-6-phosphate [2]) of the same variant?
**A.** 0.000148 ± 1.6e-05 s⁻¹

**Q.** And the “self-cleavage kobs at 2500 uM GlcN6P” value (glucosamine-6-phosphate [3])?
**A.** 0.000117 ± 1.2e-05 s⁻¹

**Q.** What about the “self-cleavage kobs at 10000 uM GlcN6P” value (glucosamine-6-phosphate [4]) of the same variant?
**A.** 0.000101 ± 9.9e-06 s⁻¹

**Q.** U54A G59A was tested. Which kcat (glucosamine-6-phosphate [1]) did it give?
**A.** 6.69e-05 ± 7.1e-06 s⁻¹

**Q.** And the KM (glucosamine-6-phosphate [7])?
**A.** 4220 ± 1300 µM

**Q.** And the “self-cleavage kobs at 10000 uM GlcN6P” value (glucosamine-6-phosphate [4])?
**A.** 4.72e-05 ± 7.4e-06 s⁻¹

**Q.** For U54A G59U, which kcat (glucosamine-6-phosphate [1]) is on record?
**A.** 0.000197 ± 2.9e-05 s⁻¹

**Q.** What about the “self-cleavage kobs at 10000 uM GlcN6P” value (glucosamine-6-phosphate [4]) of the same variant?
**A.** 5.84e-05 ± 1e-05 s⁻¹

**Q.** What does the source list for G51U A52C?
**A.** kcat (glucosamine-6-phosphate [1]): < 1e-05 s⁻¹; self-cleavage kobs at 40 uM GlcN6P (glucosamine-6-phosphate [5]): < 1e-05 s⁻¹; self-cleavage kobs at 2500 uM GlcN6P (glucosamine-6-phosphate [3]): < 1e-05 s⁻¹; self-cleavage kobs at 10000 uM GlcN6P (glucosamine-6-phosphate [4]): < 1e-05 s⁻¹

**Q.** A52C U54A was tested. Which kcat (glucosamine-6-phosphate [1]) did it give?
**A.** 1.15e-05 ± 1.5e-06 s⁻¹

**Q.** And the KM (glucosamine-6-phosphate [7])?
**A.** 368 ± 130 µM

**Q.** Which results are given for U55C C70G?
**A.** kcat (glucosamine-6-phosphate [1]): < 1e-05 s⁻¹; self-cleavage kobs at 40 uM GlcN6P (glucosamine-6-phosphate [5]): < 1e-05 s⁻¹

**Q.** What does the source list for U55C G66U?
**A.** kcat (glucosamine-6-phosphate [1]): 0.00114 ± 0.00044 s⁻¹; self-cleavage kobs at 40 uM GlcN6P (glucosamine-6-phosphate [5]): 6.69e-05 ± 1.8e-05 s⁻¹; self-cleavage kobs at 160 uM GlcN6P (glucosamine-6-phosphate [6]): 0.000202 ± 5.7e-05 s⁻¹; self-cleavage kobs at 640 uM GlcN6P (glucosamine-6-phosphate [2]): 0.000297 ± 5.7e-05 s⁻¹; self-cleavage kobs at 2500 uM GlcN6P (glucosamine-6-phosphate [3]): 0.00105 ± 0.00021 s⁻¹; self-cleavage kobs at 10000 uM GlcN6P (glucosamine-6-phosphate [4]): 0.00102 ± 0.00022 s⁻¹

**Q.** What does the source list for A53C G66C?
**A.** kcat (glucosamine-6-phosphate [1]): 0.000476 ± 8.1e-05 s⁻¹; KM (glucosamine-6-phosphate [7]): 2510 ± 780 µM; self-cleavage kobs at 640 uM GlcN6P (glucosamine-6-phosphate [2]): 9.27e-05 ± 1.9e-05 s⁻¹; self-cleavage kobs at 2500 uM GlcN6P (glucosamine-6-phosphate [3]): 0.00034 ± 0.00011 s⁻¹; self-cleavage kobs at 10000 uM GlcN6P (glucosamine-6-phosphate [4]): 0.000368 ± 6.5e-05 s⁻¹

**Q.** For U54C C71A, which kcat (glucosamine-6-phosphate [1]) is on record?
**A.** 0.00379 ± 0.00088 s⁻¹

**Q.** And the KM (glucosamine-6-phosphate [7])?
**A.** 1580 ± 530 µM

**Q.** What about the “self-cleavage kobs at 40 uM GlcN6P” value (glucosamine-6-phosphate [5]) of the same variant?
**A.** 0.000112 ± 1.4e-05 s⁻¹

**Q.** What about the “self-cleavage kobs at 160 uM GlcN6P” value (glucosamine-6-phosphate [6]) of the same variant?
**A.** 0.000296 ± 4.1e-05 s⁻¹

**Q.** What about the “self-cleavage kobs at 640 uM GlcN6P” value (glucosamine-6-phosphate [2]) of the same variant?
**A.** 0.00133 ± 0.00019 s⁻¹

**Q.** And the “self-cleavage kobs at 2500 uM GlcN6P” value (glucosamine-6-phosphate [3])?
**A.** 0.00192 ± 0.00026 s⁻¹

**Q.** And the “self-cleavage kobs at 10000 uM GlcN6P” value (glucosamine-6-phosphate [4])?
**A.** 0.0039 ± 0.00049 s⁻¹
